Measured values as given in PMC10090177.

Experiments:
Assay in all cases: cryo-EM structure; purified SGIV virions; icosahedral capsid, block-based reconstruction at 3.5 Å; atomic model of one asymmetric unit
[1] = molecular target: Singapore grouper iridovirus major capsid protein VP72 (Singapore grouper iridovirus (SGIV))
[2] = molecular target: Singapore grouper iridovirus penton protein VP14 (Singapore grouper iridovirus (SGIV))
[3] = molecular target: Singapore grouper iridovirus zip protein VP38 (P1) (Singapore grouper iridovirus (SGIV))

In the case of “Singapore grouper iridovirus major capsid protein VP72 (natural protein)”, the stoichiometry N [1] is reported as 3.

In the case of “Singapore grouper iridovirus penton protein VP14 (natural protein)”, the stoichiometry N [2] is reported as 5.

With “Singapore grouper iridovirus zip protein VP38 (P1) (natural protein)” the stoichiometry N [3] was 2.
